Patent US20250136688A1 (Janssen / Centocor, published 2025)

How the values were obtained:
[1] = target: T1, ectonucleotide pyrophosphatase/phosphodiesterase family member 3 (ENPP3) (human, UniProt O14638 1-875); assay: cell-based or functional assay
T1 sequence (looked up): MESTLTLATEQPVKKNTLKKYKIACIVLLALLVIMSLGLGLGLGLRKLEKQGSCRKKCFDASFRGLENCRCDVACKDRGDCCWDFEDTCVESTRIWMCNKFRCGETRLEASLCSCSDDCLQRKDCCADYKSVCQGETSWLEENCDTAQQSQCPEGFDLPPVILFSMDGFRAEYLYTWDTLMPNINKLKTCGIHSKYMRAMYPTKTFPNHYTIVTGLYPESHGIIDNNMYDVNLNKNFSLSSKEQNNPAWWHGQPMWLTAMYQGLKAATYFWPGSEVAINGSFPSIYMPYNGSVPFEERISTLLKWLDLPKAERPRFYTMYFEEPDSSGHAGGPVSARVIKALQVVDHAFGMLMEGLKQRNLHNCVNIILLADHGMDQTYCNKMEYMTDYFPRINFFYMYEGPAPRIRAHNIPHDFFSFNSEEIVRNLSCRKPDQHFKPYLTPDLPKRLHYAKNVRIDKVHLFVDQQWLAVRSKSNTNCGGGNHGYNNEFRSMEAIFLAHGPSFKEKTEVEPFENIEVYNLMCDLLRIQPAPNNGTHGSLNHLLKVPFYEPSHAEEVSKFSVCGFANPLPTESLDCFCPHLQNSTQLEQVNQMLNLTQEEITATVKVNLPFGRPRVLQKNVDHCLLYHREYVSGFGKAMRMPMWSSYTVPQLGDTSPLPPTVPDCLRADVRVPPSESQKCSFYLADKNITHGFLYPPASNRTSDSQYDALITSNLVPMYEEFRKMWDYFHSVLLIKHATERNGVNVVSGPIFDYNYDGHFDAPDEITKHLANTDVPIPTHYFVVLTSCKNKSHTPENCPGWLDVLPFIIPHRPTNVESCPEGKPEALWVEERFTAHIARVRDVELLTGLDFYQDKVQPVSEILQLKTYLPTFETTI

cyno ENPP3 = target: T2, cyno ENPP3 (cynomolgus monkey, UniProt A0A2K5TKP4 1-874); assay: cell-based or functional assay
T2 sequence: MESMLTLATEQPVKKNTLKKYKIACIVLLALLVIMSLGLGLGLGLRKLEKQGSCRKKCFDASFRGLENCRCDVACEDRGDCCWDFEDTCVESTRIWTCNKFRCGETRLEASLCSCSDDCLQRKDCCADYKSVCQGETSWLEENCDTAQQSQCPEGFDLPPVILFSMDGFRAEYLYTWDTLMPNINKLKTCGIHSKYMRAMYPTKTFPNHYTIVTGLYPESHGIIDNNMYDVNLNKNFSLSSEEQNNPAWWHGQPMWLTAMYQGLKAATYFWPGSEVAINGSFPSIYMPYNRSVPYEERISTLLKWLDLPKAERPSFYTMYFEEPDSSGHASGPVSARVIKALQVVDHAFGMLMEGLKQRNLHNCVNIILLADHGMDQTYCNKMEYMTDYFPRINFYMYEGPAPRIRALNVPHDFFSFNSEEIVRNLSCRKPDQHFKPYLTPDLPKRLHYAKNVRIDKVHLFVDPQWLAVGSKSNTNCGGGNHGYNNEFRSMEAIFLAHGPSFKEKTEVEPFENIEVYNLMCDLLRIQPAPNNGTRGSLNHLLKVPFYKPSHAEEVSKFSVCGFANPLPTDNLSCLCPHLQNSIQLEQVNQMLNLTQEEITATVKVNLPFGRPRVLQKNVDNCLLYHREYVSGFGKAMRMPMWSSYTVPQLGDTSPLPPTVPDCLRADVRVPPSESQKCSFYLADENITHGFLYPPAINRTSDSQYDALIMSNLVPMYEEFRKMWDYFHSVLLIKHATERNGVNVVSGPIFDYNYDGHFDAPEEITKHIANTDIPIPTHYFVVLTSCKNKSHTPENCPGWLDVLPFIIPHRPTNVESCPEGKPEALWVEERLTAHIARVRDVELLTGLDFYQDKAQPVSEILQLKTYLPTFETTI

[2] = target: T1, ectonucleotide …; assay: flow cytometry on CHO ENPP3 OE cells
Human CD3 epsilon [3] = target: T3, Human CD3 epsilon (human, UniProt P07766 23-207); assay: flow cytometry on T cells of healthy human donor 110042593
T3 construct: Stood on human T cells (pan-T cells, isolated donor T cells) as part of the TCR/CD3 complex; the other chains of the complex are not written here; also called CD3ε; CD3R
T3 sequence (P07766 23-207 limits assumed): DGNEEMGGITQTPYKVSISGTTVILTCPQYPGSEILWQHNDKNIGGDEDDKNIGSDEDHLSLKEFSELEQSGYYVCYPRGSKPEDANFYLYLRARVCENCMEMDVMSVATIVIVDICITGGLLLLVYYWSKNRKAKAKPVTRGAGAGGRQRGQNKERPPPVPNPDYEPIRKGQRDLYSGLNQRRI

Human CD3 epsilon [4] = target: T3, Human CD3 epsilon; assay: flow cytometry on T cells of healthy human donor 110044049

B1: NPP3B815 (NPP3B56×CD3B2030-N106A-spFv) (bispecific antibody, human IgG1, kappa, L234A L235A)
chain: EIVLTQSPATLSASPGERVTLSCSASSSVSYMNWYQQKPGCAPRRWIYDSSKLASGVPARFSGSGSGRDYTLTISSLEPEDFAVYYCQQWSRNPPTFGGGTKVEIKGGGSGGSGGCPPCGGSGGQVQLVQSGAEVKKPGSSVKVSCKASGYTFTRSTMHWVKQAPGQGLEWIGYINPSSAYTNYNQKFQGRVTLTADKSTSTAYMELSSLRSEDTAVYYCASPQVHYDYAGFPYWGCGTLVTVSSEPKSSDKTHTCPPCPAPEAAGGPSVFLFPPKPKDTLMISRTPEVTCVVVSVSHEDPEVKFNWYVDGVEVHNAKTKPREEQYNSTYRVVSVLTVLHQDWLNGKEYKCKVSNKALPAPIEKTISKAKGQPREPQVYTLPPSREEMTKNQVSLWCLVKGFYPSDIAVEWESNGQPENNYKTTPPVLDSDGSFFLYSKLTVDKSRWQQGNVFSCSVMHEALHNHYTQKSLSLSPGK
heavy: EVQLVESGGGRVKPGGSLRLSCAASGFTFSDYSMNWVRQAPGKGLEWVSSISSISSYVKYADSVKGRFTMSRDNAKNSLFLQMNSLRDEDMAVYYCARGHYFDYWGQGTLVTVSSASTKGPSVFPLAPSSKSTSGGTAALGCLVKDYFPEPVTVSWNSGALTSGVHTFPAVLQSSGLYSLSSVVTVPSSSLGTQTYICNVNHKPSNTKVDKKVEPKSCDKTHTCPPCPAPEAAGGPSVFLFPPKPKDTLMISRTPEVTCVVVSVSHEDPEVKFNWYVDGVEVHNAKTKPREEQYNSTYRVVSVLTVLHQDWLNGKEYKCKVSNKALPAPIEKTISKAKGQPREPQVYTLPPSREEMTKNQVSLSCAVKGFYPSDIAVEWESNGQPENNYKTTPPVLDSDGSFFLVSKLTVDKSRWQQGNVFSCSVMHEALHNRFTQKSLSLSPGK
light: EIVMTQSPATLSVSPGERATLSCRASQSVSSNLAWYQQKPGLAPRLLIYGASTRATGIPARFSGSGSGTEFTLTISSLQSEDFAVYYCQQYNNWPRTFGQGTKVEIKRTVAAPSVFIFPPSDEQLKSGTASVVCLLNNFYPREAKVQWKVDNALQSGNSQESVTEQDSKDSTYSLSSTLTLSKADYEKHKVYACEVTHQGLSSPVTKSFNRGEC
notes: Heavy Chain 1 = anti-CD3 spFv-Fc (knob); Heavy Chain 2 and Light Chain = anti-ENPP3 Fab arm NPP3B56 (hole); IgG1 with L234A, L235A, D265S; also called ENPP3×CD3
[1]
  killing EC50 @ 72 hrs, A704, T-cell donor 110040278, E:T 1:1: 0.075 nM
  killing EC50 @ 72 hrs, A704, T-cell donor 110040278, E:T 3:1: 0.0484 nM
  killing EC50 @ 72 hrs, A704, T-cell donor 110042496, E:T 1:1: 0.132 nM
  killing EC50 @ 72 hrs, A704, T-cell donor 110042496, E:T 3:1: 0.0696 nM
  killing EC50 @ 72 hrs, A704, T-cell donor 110042593, E:T 1:1: 0.114 nM
  killing EC50 @ 72 hrs, A704, T-cell donor 110042593, E:T 3:1: 0.0336 nM
  killing EC50 @ 72 hrs, A704, T-cell donor 110044049, E:T 3:1: 0.0524 nM
  killing EC50 @ 72 hrs, A704, T-cell donor 888668965, E:T 3:1: 0.0454 nM
  killing EC50 @ 72 hrs, VMRCRCW, T-cell donor 110040278, E:T 1:1: 0.243 nM
  killing EC50 @ 72 hrs, VMRCRCW, T-cell donor 110040278, E:T 1:3: 0.456 nM
  killing EC50 @ 72 hrs, VMRCRCW, T-cell donor 110040278, E:T 3:1: 0.0923 nM
  killing EC50 @ 72 hrs, VMRCRCW, T-cell donor 110042496, E:T 1:1: 0.465 nM
  killing EC50 @ 72 hrs, VMRCRCW, T-cell donor 110042496, E:T 3:1: 0.128 nM
  killing EC50 @ 72 hrs, VMRCRCW, T-cell donor 110042593, E:T 1:1: 0.225 nM
  killing EC50 @ 72 hrs, VMRCRCW, T-cell donor 110042593, E:T 3:1: 0.0795 nM
  killing EC50 @ 72 hrs, VMRCRCW, T-cell donor 110044049, E:T 1:1: 0.151 nM
  killing EC50 @ 72 hrs, VMRCRCW, T-cell donor 110044049, E:T 1:3: 0.226 nM
  killing EC50 @ 72 hrs, VMRCRCW, T-cell donor 110044049, E:T 3:1: 0.115 nM
  killing EC50 @ 72 hrs, VMRCRCW, T-cell donor 110048457, E:T 1:1: 0.177 nM
  killing EC50 @ 72 hrs, VMRCRCW, T-cell donor 110048457, E:T 1:3: 0.276 nM
  killing EC50 @ 72 hrs, VMRCRCW, T-cell donor 110048457, E:T 3:1: 0.372 nM
  killing EC50 @ 72 hrs, VMRCRCW, T-cell donor 888668965, E:T 1:1: 0.273 nM
  killing EC50 @ 72 hrs, VMRCRCW, T-cell donor 888668965, E:T 1:3: 0.469 nM
  killing EC50 @ 72 hrs, VMRCRCW, T-cell donor 888668965, E:T 3:1: 0.156 nM
  killing EC50 @ 120 hrs, A704, T-cell donor 110040278, E:T 1:1: 0.041 nM
  killing EC50 @ 120 hrs, A704, T-cell donor 110040278, E:T 1:3: 0.149 nM
  killing EC50 @ 120 hrs, A704, T-cell donor 110042496, E:T 1:1: 0.073 nM
  killing EC50 @ 120 hrs, A704, T-cell donor 110042496, E:T 1:3: 0.191 nM
  killing EC50 @ 120 hrs, A704, T-cell donor 110042593, E:T 1:1: 0.048 nM
  killing EC50 @ 120 hrs, A704, T-cell donor 110042593, E:T 1:3: 0.106 nM
  killing EC50 @ 120 hrs, A704, T-cell donor 110044049, E:T 1:1: 0.125 nM
  killing EC50 @ 120 hrs, A704, T-cell donor 888668965, E:T 1:3: 0.163 nM
  killing EC50 @ 120 hrs, VMRCRCW, T-cell donor 110040278, E:T 1:1: 0.264 nM
  killing EC50 @ 120 hrs, VMRCRCW, T-cell donor 110040278, E:T 1:3: 0.332 nM
  killing EC50 @ 120 hrs, VMRCRCW, T-cell donor 110042496, E:T 1:1: 0.454 nM
  killing EC50 @ 120 hrs, VMRCRCW, T-cell donor 110042496, E:T 1:3: 0.5 nM
  killing EC50 @ 120 hrs, VMRCRCW, T-cell donor 110042593, E:T 1:1: 0.218 nM
  killing EC50 @ 120 hrs, VMRCRCW, T-cell donor 110042593, E:T 1:3: 0.485 nM
  killing EC50 @ 120 hrs, VMRCRCW, T-cell donor 110044049, E:T 1:1: 0.216 nM
  killing EC50 @ 120 hrs, VMRCRCW, T-cell donor 110044049, E:T 1:3: 0.337 nM
  killing EC50 @ 120 hrs, VMRCRCW, T-cell donor 110048457, E:T 1:1: 0.21 nM
  killing EC50 @ 120 hrs, VMRCRCW, T-cell donor 110048457, E:T 1:3: 0.267 nM
  killing EC50 @ 120 hrs, VMRCRCW, T-cell donor 888668965, E:T 1:1: 0.345 nM
  killing EC50 @ 120 hrs, VMRCRCW, T-cell donor 888668965, E:T 1:3: 0.379 nM
Cyno ENPP3
  Cytotox. EC50, human T cells, HepG2-KO cyno ENPP3-OE cells, E:T 3:1: 0.079 nM
  T-cell activation EC50, human T cells, HepG2-KO cyno ENPP3-OE cells, E:T 3:1: 0.023 nM
[2]
  EC50: 0.51 nM
Human CD3 epsilon [3]
  EC50: 146 nM
Human CD3 epsilon [4]
  EC50: 188 nM
